Experimental data published in US20250051454A1 (DUKE UNIVERSITY, published 2025).

T1: Sjogren's syndrome antigen (SSB) (UniProt P05455 1-408)
T1 sequence (looked up): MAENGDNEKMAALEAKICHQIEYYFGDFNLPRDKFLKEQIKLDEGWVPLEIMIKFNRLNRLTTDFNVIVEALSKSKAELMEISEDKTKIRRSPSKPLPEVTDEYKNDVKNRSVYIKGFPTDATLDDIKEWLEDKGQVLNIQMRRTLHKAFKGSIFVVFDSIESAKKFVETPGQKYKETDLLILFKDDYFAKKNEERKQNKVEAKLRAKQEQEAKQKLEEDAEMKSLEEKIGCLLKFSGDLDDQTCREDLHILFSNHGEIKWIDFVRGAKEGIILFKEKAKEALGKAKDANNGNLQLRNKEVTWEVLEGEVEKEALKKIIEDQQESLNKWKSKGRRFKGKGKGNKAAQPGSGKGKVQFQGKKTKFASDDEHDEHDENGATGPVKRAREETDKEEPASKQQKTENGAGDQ

T2: scleroderma 70 (Scl-70) (UniProt P11387 2-765)
T2 sequence (looked up): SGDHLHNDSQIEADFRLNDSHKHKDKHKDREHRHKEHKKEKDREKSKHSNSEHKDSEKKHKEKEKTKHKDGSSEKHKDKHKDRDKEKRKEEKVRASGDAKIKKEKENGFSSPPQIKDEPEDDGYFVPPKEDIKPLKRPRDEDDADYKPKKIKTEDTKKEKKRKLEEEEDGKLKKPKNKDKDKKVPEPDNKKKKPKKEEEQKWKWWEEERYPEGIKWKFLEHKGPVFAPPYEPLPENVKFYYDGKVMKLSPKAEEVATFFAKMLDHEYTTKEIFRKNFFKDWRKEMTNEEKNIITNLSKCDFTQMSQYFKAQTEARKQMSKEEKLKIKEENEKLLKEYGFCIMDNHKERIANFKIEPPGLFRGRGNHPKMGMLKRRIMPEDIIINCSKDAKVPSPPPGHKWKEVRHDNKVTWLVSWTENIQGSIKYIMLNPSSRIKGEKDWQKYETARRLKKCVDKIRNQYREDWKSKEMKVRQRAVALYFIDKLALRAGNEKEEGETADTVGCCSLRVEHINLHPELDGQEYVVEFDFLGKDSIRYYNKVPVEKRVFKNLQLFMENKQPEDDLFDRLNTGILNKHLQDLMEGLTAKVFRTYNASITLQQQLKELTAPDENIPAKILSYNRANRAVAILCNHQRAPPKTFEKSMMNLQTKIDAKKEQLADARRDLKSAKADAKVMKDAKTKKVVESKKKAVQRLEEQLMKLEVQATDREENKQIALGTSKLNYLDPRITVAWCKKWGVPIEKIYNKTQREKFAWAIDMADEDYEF

T3: Jo-1 antigen (UniProt P12081 2-509)
T3 sequence (looked up): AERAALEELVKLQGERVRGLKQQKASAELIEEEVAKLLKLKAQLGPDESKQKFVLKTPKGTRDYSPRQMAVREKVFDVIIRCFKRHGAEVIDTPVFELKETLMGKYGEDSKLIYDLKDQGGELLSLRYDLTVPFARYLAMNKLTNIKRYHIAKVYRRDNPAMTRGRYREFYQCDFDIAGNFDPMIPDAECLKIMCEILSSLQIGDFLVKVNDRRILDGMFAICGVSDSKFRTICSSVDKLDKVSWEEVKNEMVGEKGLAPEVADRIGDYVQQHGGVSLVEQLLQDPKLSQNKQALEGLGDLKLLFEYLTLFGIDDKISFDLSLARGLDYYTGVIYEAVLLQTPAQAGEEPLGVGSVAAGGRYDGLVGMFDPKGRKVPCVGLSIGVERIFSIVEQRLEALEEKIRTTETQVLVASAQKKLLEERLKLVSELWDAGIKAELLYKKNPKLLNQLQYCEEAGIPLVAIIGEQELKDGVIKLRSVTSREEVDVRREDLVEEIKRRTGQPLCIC

T4: centromere B (Cent B) (UniProt P07199 1-599)
T4 sequence (looked up): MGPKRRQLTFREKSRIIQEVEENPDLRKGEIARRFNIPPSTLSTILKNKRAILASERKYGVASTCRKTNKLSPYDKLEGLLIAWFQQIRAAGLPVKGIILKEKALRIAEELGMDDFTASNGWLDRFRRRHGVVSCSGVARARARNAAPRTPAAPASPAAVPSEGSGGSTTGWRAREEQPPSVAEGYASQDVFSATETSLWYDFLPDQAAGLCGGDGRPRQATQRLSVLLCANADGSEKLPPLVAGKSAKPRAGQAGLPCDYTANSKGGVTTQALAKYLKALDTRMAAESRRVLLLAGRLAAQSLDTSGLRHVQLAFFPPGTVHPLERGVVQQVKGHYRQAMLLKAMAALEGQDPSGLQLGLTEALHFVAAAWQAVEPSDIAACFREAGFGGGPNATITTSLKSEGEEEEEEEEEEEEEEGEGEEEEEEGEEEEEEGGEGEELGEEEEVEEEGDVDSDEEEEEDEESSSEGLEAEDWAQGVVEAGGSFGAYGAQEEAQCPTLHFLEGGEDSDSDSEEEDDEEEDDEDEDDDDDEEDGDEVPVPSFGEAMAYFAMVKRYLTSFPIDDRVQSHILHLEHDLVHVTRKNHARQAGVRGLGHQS


Experiments:
[1] = target: T5, HLA-E-RL9HIV single chain trimer on transfected 293T cells (human, UniProt P61769 21-119; P13747 22-358); assay: flow cytometry, SCT-transfected 293T cells, MFI bar chart [E]
T5 construct: also called control HLA-E-peptide complex

[2] = target: T6, HLA-E-RL9SIV single chain trimer on transfected 293T cells (human, UniProt P61769 21-119; P13747 22-358); assay: as above
T6 construct: also called control HLA-E-peptide complex

[3] = target: T7, soluble HLA-E-VL9 complex (HLA-E*01:03 heavy chain, beta2-microglobulin, VL9 peptide …) (human)
[4] = target: T7, soluble HLA-E-VL9 complex (HLA-E*01:03 …); assay: SPR, antibody (human IgG1) on CM5 chip, soluble HLA-E-VL9 flowed over; CA123 on a human IgG1 backbone
[5] = target: T1, Sjogren's syndrome antigen (SSB); assay: AtheNA autoantigen assay [panel H]
scleroderma 70 (Scl-70) = target: T2, scleroderma 70 (Scl-70); assay: AtheNA autoantigen assay [panel H]
Jo-1 antigen = target: T3, Jo-1 antigen; assay: AtheNA autoantigen assay [panel H]
centromere B (Cent B) = target: T4, centromere B (Cent B); assay: AtheNA autoantigen assay [panel H]
[6] = target: T7, soluble HLA-E-VL9 complex (HLA-E*01:03 …); assay: SPR, antibody on CM5 chip, soluble HLA-E-VL9 flowed over, 1:1 model; human IgG1 backbone 3H4

Binder | binding result [1] | binding result [2] | also measured
CA169 (antibody, V domains shown) VH: EVQLVESGGGLVKPGGSLRLSCAASGFTFSSYSMNWVRQAPGKGLEWVSSISSSSSYIYYADSVKGRFTISRDNAKNSLYLQMNSLRAEDTAVYYCASGVLLEAFDYWGQGTLVTVSS VL: SYVLTQPPSVSVAPGQTARITCGGNNIGSKSVHWYQQKPGQAPVLVVYDDSDRPSGIPERFSGSNSGNTATLTISRVEAGDEADYYCQVWDSSSDHVVFGGGTKLTVL | no binding (tested: 2 µg/ml) | no binding (tested: 2 µg/ml) | 
CA170 (antibody, V domains shown) VH: EVQLVESGGGLVKPGGSLRLSCAASGFTFSSYSMNWVRQAPGKGLEWVSSISSSSSYIYYADSVKGRFTISRDNAKNSLYLQMNSLRAEDTAVYYCARDRDLLDAFDIWGQGTMVTVSS VL: SYVLTQPPSVSVAPGQTARITCGGNNIGSKSVHWYQQKPGQAPVLVVYDDSDRPSGIPERFSGSNSGNTATLTISRVEAGDEADYYCQVWDSSSDHPWVFGGGTKLTVL | no binding (tested: 2 µg/ml) | no binding (tested: 2 µg/ml) | 
CA177 (antibody, V domains shown) VH: QVQLQESGPGLVKPSETLSLTCTVSGGSISSYYWSWIRQPPGKGLEWIGYIYYSGSTNYNPSLKSRVTISVDTSKNQFSLKLSSVTAADTAVYYCASHDYTDHAAGYWGQGTLVTVSS VL: not shown | no binding (tested: 2 µg/ml) | no binding (tested: 2 µg/ml) | 
CA173 (antibody, V domains shown) VH: EVQLVESGGGLVKPGGSLRLSCAASGFTFSSYSMNWVRQAPGEGLEWVSSISSSSTYIYYADSVKGRFTISRDNAKNSLYLQMNSLRAEDTAVYYCARDRPAGSSSLGSGYFDLWGRGTLVTVSS VL: not shown | no binding (tested: 2 µg/ml) | no binding (tested: 2 µg/ml) | 
CA178 (antibody, V domains shown) VH: QVQLVQSGAEVKKPGSSVKVSCKASGGTFSSYAISWVRQAPGQGLEWMGGIIPIFGTANYAQKFQGRVTITADESTSTAYMELSSLRSEDTAVYYCARDYGGSYYYEYFQHWGQGTLVTVSS VL: not shown | no binding (tested: 2 µg/ml) | no binding (tested: 2 µg/ml) | 
CA123 (human antibody on a human IgG1 backbone) (antibody, V domains shown, also called CA123 IgG) VH: EVQLVESGGGLVQPGGSLRLSCAASGFTFSSYWMHWVRQAPGKGLVWVSRINSDGSSTSYADSVKGRFTISRDNAKNTLYLQMNSLRAEDTAVYYCARDQGSTSCYYCYYGMDVWGQGTTVTVSS VL: not shown | no binding (tested: 2 µg/ml) | no binding (tested: 2 µg/ml) | koff [3]: 0.794 s⁻¹; kon [3]: 211000 M⁻¹ s⁻¹; Kd [4]: 3.8 µM
CA176 (antibody, V domains shown) VH: QVQLVESGGGVVQPGRSLRLSCAASGFTFSSYGMHWVRQAPGKGLEWVAVISYDGSNKYYADSVKGRFTISRDNSKNTLYLQMNSLRAEDTAVYYCAKDEGSSDFWSGYYASFDYWGQGTLVTVSS VL: DIQMTQSPISLSASVGDRVTITCRASQDISNYLTWYQQKPGKAPKLLIYAASSLQSGVPSRFSGSGSGTDFTLTISNLQPEDFATYYCQQNYSYPCTFGQGTKVEIK | no binding (tested: 2 µg/ml) | no binding (tested: 2 µg/ml) | 
CA180 (antibody, V domains shown) VH: QVQLVQSGAEVKKPGASVKVSCKASGYTFTSYGISWVRQAPGQGLEWMGWISAYNGNTNYAQKLQGRVTMTTDTSTSTAYMELRSLRSDDTAVYYCARDLGYSSSWYTSNWFDPWGQGTLVTVSS VL: QSALTQPASVSGSPGQSITISCTGTSSDVGSYNLVSWYQQHPGKAPKLMIYEGSKRPSGVSNRFSGSKSGNTASLTISGLQAEDEADYYCCSYAGSSTVVFGGGTKLTVL | no binding (tested: 2 µg/ml) | no binding (tested: 2 µg/ml) | 
3H4 on a human IgG1 backbone (3H4 Gwt) (antibody, V domains shown, also called 3H4 IgG; wild-type 3H4 IgG) VH: EVQLQESGPELVKPGASVKIPCKASGYTFTDYNMDWVKQSHGKSLEWIGDINPNNGGTIYNQKFKGKATLTVDKSSSTAYMELRSLTSEDTAVYYCARPDYYGSSYGWYFDVWGTGTTVTVSS VL: DIVITQSPSSMYASLGERVTITCKASQDINSYLSWFQQKPGKSPKTLIYRANRLVDGVPSRFSGSGSGQDYSLTISSLEYEDMGIYYCLQYDEFPLTFGAGTKLELK |  |  | binding result [5]: no binding; binding result (scleroderma 70 (Scl-70)): no binding; binding result (Jo-1 antigen): no binding; binding result (centromere B (Cent B)): no binding; Kd [6]: 49.8 µM
CA175 (antibody, V domains shown) VH: EVQLVESGGGLVQPGGSLRLSCAASGFTFSTYPMNWVRQAPGKGLEWVSYISSSSSTIYYADCVKGRFTISRDNAKNSLYLQMNSLRDEDTAVYYCARYYIAYGMDVWGQGTTVTVSS VL: DIQMTQSPSSMSASVGDRVTITCRASQGISNYLAWFQQKPGKAPKRLIYGASSLHRGVPSRFSGSGSGTEFTLTITSLQPEDFATYYCLQHNTYPRTFGQGTKVEIK | no binding (tested: 2 µg/ml) | no binding (tested: 2 µg/ml) | 
